Experimental findings from publication PMC11203631 are described below.

Bounds are passed on as bounds.

The target in test [1] is vault-Z nanoparticle (assembly of major vault protein carrying a C-terminal Z peptide) (human | staphylococcal (protein A-derived)). The experiment in a line: co-sedimentation; 8 nM vault-Z (624 nM MVP-Z) or authentic vault incubated 1 h with 40 to 320 nM Tz in 12 mM sodium phosphate pH 7.2, 0.14 M NaCl, 2.7 mM KCl; pelleted at 100,000 x g, 2 h, 4 °C; pellets quantified by SDS-PAGE densitometry and LC/MS; apparent KD from a quadratic binding equation.

For test [2], the target named is Trastuzumab. Description: SPR; same sensorgrams of Z peptide on immobilised Tz, fitted with the affinity model (Req against Z peptide concentration). (In general: In SPR one partner is held on a chip, and binding of the other changes the refractive index at the surface.)
The target of test [3] is Trastuzumab. The experiment in a line: SPR; Biacore X100; Tz amine-coupled to a CM3 chip at 1220 RU; authentic vault, vault-Z or peptide Z injected 3 min at 30 uL/min, 25 °C, in 10 mM HEPES pH 7.4, 0.15 M NaCl, 3 mM EDTA, 0.05% Surfactant P20; Langmuir 1:1 kinetic fit.

As for Trastuzumab (antibody), in test [1], the Tz bound per vault-Z at 160 nM Tz (Tz per vault-Z) stood at 14 and the stoichiometry N (Tz per vault-Z) is above 10.

Take Z peptide in isolation: the Kd – broadly, the free concentration of one partner at which half of the binding sites on the other are occupied at equilibrium, for simple one-to-one binding – with Trastuzumab [2] amounted to 56 nM. Also, in the test with Trastuzumab [3], the equilibrium dissociation constant (Kd) amounted to 38.3 nM; the koff (in general, the first-order rate constant of dissociation) was 0.0171 s⁻¹; the kon (usually a measure of how fast the partners come together) came out at 446000 M⁻¹ s⁻¹.

In the test with Trastuzumab [3], “vault-Z nanoparticle (assembly of major vault protein carrying a C-terminal Z peptide) (complex)” displayed a Kd of 2.53 nM, a koff of 0.000259 s⁻¹ and a kon of 105000 M⁻¹ s⁻¹.
